From the RNAGym collection of RNA variant scans (doi:10.7554/elife.90254)

B1: LINE1-mini (parent)
chain: GGCAGAGCUCAACACAGCGUGGCAAAGUGGCUGUGGCUAGACUGCC

Variants of: B1
Test: self-cleavage, relative activity (ratio to wild type); higher = more cleavage; in vitro, sequencing; the parent is a self-cleaving ribozyme

Point of comparison: C13A C46U, self-cleavage 0.08. Against it:
- C18A U20C — higher, 0.31
- G19C A24C — higher, 0.34
- C15G U43G — lower, 0
- A12G C18G — lower, 0.04
- A11C A14C — lower, 0.02
- G35A C46G — higher, 0.15
- G22U C46U — higher, 1.22
- A14G G33A — lower, 0.07
- U34A G35U — lower, 0.06
- G22C C23U — higher, 0.64
- G2U A39U — lower, 0.04
- U38A G40U — higher, 0.18
- U9A G33C — lower, 0.07
- U32G C45A — higher, 0.1
- G30A U32A — higher, 0.13
- G36U U43A — lower, 0.04
- A24G A39G — lower, 0.07
- G7C A14U — higher, 0.15
- G7U U28A — lower, 0.03
- A6U U43G — the same, 0.08
- C10A A16G — lower, 0.07
- C15U G44A — higher, 0.26
- G5A A39C — higher, 0.24
- A11U U28C — higher, 0.22
- G22U G29U — higher, 0.72
- G7C U32A — lower, 0.05
- A25U G35A — higher, 0.12
- A11G C46G — lower, 0.02
- C31A G33A — lower, 0.06
- U9G C42A — the same, 0.08
- A24C U38C — higher, 0.31
- U34G A39G — lower, 0.07
- G5C C31U — lower, 0.05
- G7C G35C — lower, 0.06
- A24U G35C — higher, 0.09
- G30U C45G — higher, 0.29
- A24G U32C — higher, 0.24
- A16C A39U — higher, 0.09
- G27U G30A — higher, 1.86
- C13G G21U — higher, 0.31
- C10G A16C — lower, 0.02
- C10A G36A — lower, 0.02
- G17U C31G — higher, 1.67
- C3U C15G — the same, 0.08
- A12U G35U — higher, 0.13
- A12U C23A — higher, 0.27
- C37U C45G — the same, 0.08
- G17U C46U — higher, 0.16
- U20C C46A — higher, 0.7
- C3G U9A — higher, 0.27
- G22U U28G — higher, 0.83
- C10G C31A — lower, 0.04
- C8A C45G — higher, 0.28
- G33U C45A — lower, 0.05
- A6U C37G — lower, 0.04
- G17C C42G — lower, 0.03
- C23G — higher, 0.84
- A6U U38G — lower, 0.04
- G1A C23U — higher, 1.29
- C8U C45A — higher, 0.21
- G1U C18A — higher, 0.16
- G5C G22C — higher, 0.13
- C13G G30U — higher, 0.19
- C13A C15G — the same, 0.08
- G7C C46G — the same, 0.08
- C13A G17A — higher, 0.1
- G21C C46U — higher, 0.83
- C10U C18A — higher, 0.28
- A6U G7C — higher, 0.19
- G7A U34A — higher, 0.1
- G35A A39C — the same, 0.08
- A4C U9C — lower, 0.04
- A4U C23U — higher, 0.41
- G5A G21U — higher, 0.14
- C3A U38A — higher, 0.34
- A4C G44A — higher, 0.16
- C18G G33U — lower, 0.07
- G1C A24C — lower, 0.07
- G1A C15G — the same, 0.08
- A25U U28G — higher, 0.82
- U20A U34C — higher, 0.27
- G17U G27U — higher, 0.35
- G5C C10A — lower, 0.05
- G1A G17U — higher, 0.13
- G17C U20G — higher, 0.14
- C13U A16G — higher, 0.09
- G7C C10A — lower, 0.04
- C3G G21U — higher, 0.48
- A14G A24U — higher, 0.43
- G5U C15G — higher, 0.09
- U28G C45U — higher, 0.92
- A25U C42U — higher, 0.4
- G1U U38G — lower, 0.03
- A6G A26C — higher, 0.14
- G27A G35A — higher, 0.19
- C10G U28C — higher, 0.12
- C8A A24C — higher, 0.31
- G17C C31G — higher, 0.14
- A12U C15A — higher, 0.09
- C3A G21U — higher, 0.47
- A4U C15U — higher, 0.19
- C15G G40C — lower, 0.03
- C23U A24U — higher, 0.84
- A12C A39C — lower, 0.03
- G17A A26G — higher, 0.1
- A6G U32G — lower, 0.07
- G1U G33C — lower, 0.03
- U20A A25U — higher, 0.77
- A26G C31A — higher, 0.11
- C8G G17U — lower, 0.07
- C10U C15A — lower, 0.06
- A12U C37U — lower, 0.02
- G1C C3U — higher, 0.18
- C3G G27A — higher, 0.21
- A26G G27A — higher, 0.99
- G7A C37A — higher, 0.18
- G5A C37U — higher, 0.13
- C13U U43G — higher, 2.25
- C3U G27A — higher, 0.36
- C8G C23U — higher, 0.1
- A4U A41C — higher, 0.11
- C18G A26U — higher, 0.42
- C3A C42G — the same, 0.08
- A6C U43A — higher, 0.13
- G36A A41U — higher, 0.44
- A6C A26C — higher, 0.48
- G21C G44U — higher, 0.28
- A14C C46U — higher, 0.18
- G19A C23A — higher, 0.96
- C8G U32C — lower, 0.06
- G36A C42A — higher, 0.16
- C13U U43A — higher, 0.1
- C15U C18U — higher, 0.47
- G1U A39U — higher, 0.2
- G1U U38C — higher, 0.2
- A16U C18A — lower, 0.05
- C3G A25G — higher, 0.14
- U38A A41C — lower, 0.04
- U20G U34C — higher, 0.39
- G29A C45G — higher, 0.2
- G2U C18A — lower, 0.03
- U32A C37U — the same, 0.08
- U9C G29C — lower, 0.02
- C15A U28G — lower, 0.06
- U9C A16C — lower, 0.02
- A26G A39U — higher, 0.5
- G33U U43A — higher, 0.12
- G29U U32C — higher, 0.16
- A6G A41C — higher, 0.15
- C3U C42U — higher, 0.14
- U32C G40C — lower, 0.03
- G7U C46U — lower, 0.03
- A16G C37A — the same, 0.08
- C10U C45G — higher, 0.15
- G5A G40A — higher, 0.11
- C3A G19A — higher, 0.61
- G1U A14U — higher, 0.16
- A16U U28A — higher, 0.26
- U9A A14U — higher, 0.11
- A4C A6G — higher, 0.37
- G19U U38A — higher, 0.38
- A12U A16G — higher, 0.16
- C23A G33C — lower, 0.05
- G1A A41G — higher, 0.26
- A25G A41U — higher, 0.19
- G35U G40C — lower, 0.06
